Experiment: soluble on expression in E. coli; label from the status in PepcDB or PDB records

Sequence | soluble on expression in E. coli
MSLAVGKYTQLISDLLQSVSIVDALPRGAAQAGILCQDTKEVLESENTVLEIAIPRQDNLVIVGDIHGQFADMLSNVLSIQLNLNNTKATDGRGSPSTEIYKFLFLGDYVDRGPQSLEVITLLFALKVEYPEHIFLLRGNHEEAQTSRLYGFFQECKSKLEGTGDRGPASVDITSSTWLQYNTVFCWLPLAAVVACPSGMFFCTHGGLSPHTLSVPLLRSLRRNEYGMVDDFEDTFYTPTSRGGDDMLEGPGAKARLVIDGLLWSDPEDQVSGCQMNNRGCGFIFGPDVTRSFLDRNYSYGFPPSKRQLIGEMKPGMQFILRGHQCAREGYMWCHGGLVLTLFSAPNYCGMHGNKGAVALLRGQVQAGKDRVELEFNVYDTVVRGGSDNLVACLSPFAFAHYFSGDSEGHHHHHH | not soluble
GSHPLGDTSDASKLSSDYSLPDLINTRKVPNNWQTGEQASLEEGRIVLTSNQNSKGSLWLKQGFDLKDSFTMEWTFRSVGYSGQTDGGISFWFVQDSNIPRDKQLYNGPVNYDGLQLLVDNNGPLGPTLRGQLNDGQKPVDKTKIYDQSFASCLMGYQDSSVPSTIRVTYDLEDDNLLKVQVDNKVCFQTRKVRFPSGSYRIGVTAQNGAVNNNAESFEIFKMQFFNGVIEDSLIPNVNAMGQPKLITKYIDQQTG | soluble
ANGLITKIWGTAGWTFNHAVTFGYPLNPTSDDKRRYKNYFISLGDVLPCRLCRESYKKFITTGKTALTNEVLRNRHTLTKWFYDVHNAVNNKLEVDYGLSYEDVVNKYESFRAK | soluble
MGSDKIHHHHHHLAIFIQYIDTLKLVSIGKNDMYSIEQLEAFVATVKTGSFSSAARALNKAQSVISQHVINLEIDCNSELFDRSGRYPQLTPAGKKLLPHAQVLLSQHQRLRDCAQSLDQQAISELTIGLDEGIPLQKLFNIINELEAKFPTITLEFLTASSIDIIDMIDTERAVTGIIFSELTIPAHIDFESIGSIKFDMYVASTHLLAQQIYDNLAHLKLHRQLLIRSRNTKSSSFQFAISPDVWYADNYYILLELALQGHGWCLLPNHIANHYVDSGQLVMLPSEFKEIGWQANVDVIQHHRYSHEPVFKQLRHSLRQLLTYSA | not soluble
MGSDKIHHHHHHMHSLQQLKSQLLSYHAGILGEEYVKKSAVFIPLVEKDDGVHVLFEVRAHTLKQQPGEICFPGGRIDPEDASPEEAAIRETSEELGIPSSVIAPITSLDVLVTPFRGIIYPVIGSIPHKNDYPLNQAEVDHVFTVPIDHFISHPPEQYRINVHFEPGAGFPIERIANQSAYQKSTRQITESFYYYQSYVIWGLTAKILRHVITILKPS | not soluble
MPKVISQKEFNILSRTKERVNFQIVYTKQRNGLHKAAKEYFFKDKDFTIIEDTPDTPDQPDGPCITKGPKEPGGPEEPNGPDKPEDPKDPDTPDVSEGPKEQGGQKDPGGPDDPSEGKQKVSKPDKYVTHRELDEKLKDFATKADFKRVEDKVDVLFELQKTQGEQIKVQGEQIKAQGKQIEQLTETVKVQGEQIRAQGEQIKAQSEEIKEIKVEQKAQGEQIKELQVEQKAQGKTLQLILKTLEKMNERLEKLESK | soluble
MGSDKIHHHHHHMIVLGHRGYSAKYLENTLEAFMKAIEAGANGVELDVRLSKDGKVVVSHDEDLKRLFGLDVKIRDATVSELKELTDGKITTLKEVFENVSDDKIINIEIKEREAADAVLEISKKRKNLIFSSFDLDLLDEKFKGTKYGYLIDEENYGSIENFVERVEKERPYSLHVPYQAFELEYAVEVLRSFRKKGIVIFVWTLNDPEIYRKIRREIDGVITDEVELFVKLR | not soluble
MYQVITMYGDNEPWWFFDDWQEDIVQEKTFDNLTDAETYYVEVWQKLSQNYTYVNTKPNYLTAFWNDGEERWCEECDEDLQQYFGLALLENHHAVTFENKAEFTTISNHFGKTKFCKRKVI | not soluble
SSLENVVYNLVNAGHFDGRAGELPCAVIGEKVIAKIQNEDVVVFKNNTPFPTNVAVELFAKRSIRPHPELKLFRNLNIDVCWSHVLWDYAKDSVFCSSTYKVCKYTDLQCIESLNVLFDGRDNGALEAFKKCRNGVYINTTKIKSLSMIKGPQRADLNGVVVEKVGDSDVEFWFAVRKDGDDVIFSRTGSLEPSHYRSPQGNPGGNRVGDLSGNEALARGTIFTQSRLLSSFTPRSEMEKDFMDLDDDVFIAKYSLQDYAFEHVVYGSFNQKIIGGLHLLIGLARRQQKSNLVIQEFVTYDSSIHSYLITDENSGSSKSVCTVIDLLLDDFVDIVKSLNLKCVSKVVNVNVDFKDFQFMLWCNEEKVMTF | soluble
